Here are results for 13 proteins from patent publication US20250027068.

The chains are these.
B1: PRT-457 (protein)
chain: MVTSVWTKGVTPPTDFIKGEDVFHAPYKAGQGWYDITKAFDGGDDLLCGAATAGNMLHWWFDQNKDQIEAYLKEHPEKQKINFNGEQMFDVKEAIDTKDDQTNSELFNYFKEKAFPYLSTKHLGVFPDHVLDMFINGYRLSLTNHGPTPVKRQEKDPRGGIFDAVFGRGDQTKLLTSRHDLKNKTLKEISDLIKQELTEGKALALSHTYANVRINHVINLWGADFDSNGNLEAIYVTDSDSNASIGMKKYFVGVNSAGKVAISAKEIEDDNIGAQVLGLFTLSTGQKIWNKTNLEHHHHHH
B2: PRT-614 (protein)
chain: MQITSVWTKGVKPLTPEQFRYNNEDVIHAPYLAHQGWYDITKAFDGKDNLLCGAATAGNMLHWWFDQNKTEIEAYLSKHPEKQKIIFNNQELFDLRAAIDTKDSQTNSQLFNYFRDKAFPNLSARQLGVMPDLVLDMFINGYYLNVFKTQSTDVNRPYQDKDKRGGIFDDVFTRGDQTTLLTARHDLKNGGLNDISTIIKQELTEGRALALSHTYANVSISHVINLWGADFNAEGNLEAIYVTDSDANASIGMKKYKVGINAHGHVAISAKKIEGENIGAQVLGLFTLSSGKDIWQKLSLEHHHHHH
B3: PRT-662 (protein)
chain: MQITSVWTKGVTPLTPEQFRYNNEDVFHAPYLAHQGWYDITKAFDGKDNLLCGAATAGNMLHWWFDQNKTEIEAYLSKHPEKQKIIFNNQELFDLRAAINTKDSQTNSQLFNYFRDKAFPNLSARQLGVMPDLVLDMFINGYYLNVFKTQSTDVNRPYQDKDKRGGIFDAVFTRGDQTTLLTARHDLKNKGLNDISTLIKQELTEGRALALSHTYANVSISHVINLWGADFNAEGNLEAIYVTDSDANASIGMKKYFVGINASGHVAISAKKIEGENIGAQVLGLFTLSSGKDIWQKLSLEHHHHHH
B4: PRT-500 (protein)
chain: MVTSVWTKGVTPPADFTQGEDVFHAPYVANQGWYDITKAFDGGDDLLCGAATAGNMLHWWFDQNKEYIEAYLKKHPEKQKIMFGDQELLDVRKAINTKGSQKNSELFNYFRDKAFPNLSARRLGVMPDLVLDMFINGYYLNVTKTQTTDVNRTYQEKDKRGGIFDAVFTRGDQSKLLTSRHDLKNKGLKEISDLIKQELTEGKALGLSHTYANVRINHVINLWGADFDSDGNLKAIYVTDSDSNASIGMKKYFVGVNSAGKVAISAKEIKEDNIGAQVLGLFTLSTGQDIWNQTNLEHHHHHH
B5: PRT-481 (protein)
chain: MVTSVWTKGVTPPTDFIYGEDVLHAPYKAGQGWYDITKAFDGGDDLLCGAATAGNMLHWWFDQNKEQIENYLKKHPEKQKINFNGEQMFDVKEAIDTKDSQTNSELFNYFKEKAFPYLSTKHLGVFPDHVIDMFINGYRLSLTNHGPTPVKRQEKDPRGGIFDAVFGRGDQTKLLTNRHDLKNKTLKEISDLIKQELTEGKALGISHTYANVRINHVINLWGADFDAEGNLEAIYVTDSDSNASIGMKKYFVGVNSNGKVAISAKEIEEDNIGAQVLGLFTLSTGQKIWNKTNLEHHHHHH
B6: PRT-519 (protein)
chain: MVTSVWTKGVTPPTDFIKGEDVFHAPYKAGQGWYDITKTFNGKDNLLCGAATAGNMLHWWFDQNKEYIEAYLKKHPEKQKIIFNNQELFDLKAAINTKGSQKNSELFNYFRDKAFPNLSARRLGVFPDLVLDMFINGYYLNVTKTQTTDVNRTYQEKDKRGGIFDAVFTRGVQSKLLTSRHDLKNKGLKEISDLIKQELTEGKALGLSHTYANVRINHVINLWGADFDSDGNLKAIYVTDSDTNASIGMKKYFVGVNSAGKVAISAKEIKEDNIGAQVLGLFTLSTGQDIWNQTNLEHHHHHH
B7: PRT-474 (protein)
chain: MVTSVWTKGVTPPTDFRKIVDGNIAYYHAPYKAGQGWYDITKAFDGGDDLLCGAATAGNMLHWWFDQNKEQIENYLKKHPEKQKINFNGEQMFDVKEAIDTKDSQTNSELFNYFKEKAFPYLSTKHLGVFPDHVIDMFINGYRLSLTNHGPTPVKRGSKDPRGGIFDAVFTRGDQSKLLTNRHDLKNKTLKEISDLIKQELTEGKALGISHTYANVRINHVINLWGADFDAEGNLEAIYVTDSDSNASIGMKKYFVGVNSNGKVAISAKEIEEDNIGAQVLGLFTLSTGQDIWNQTNLEHHHHHH
B8: PRT-523 (protein)
chain: MITSVWTKGVTPPTDFIKGEDVFHAPYKAGQGWYDITKTFNGKDNLLCGAATAGNMLHWWFDQNKEEIEAYLKKHPEKQKIIFNNQELFDLKAVINTKDSQTNSALFNYFKDKAFPNLSARRLGVFPDLVLDMFINGYYLNVYKTQTTDVNRTYQTKDRRGGIFDAVFTRGVQSKLLTERHDLKNKTLKEISDLIKQELTEGKALGLSHTYANVRINHVINLWGADFDSNGNLEAIYVTDSDTNASIGMKKYFVGVNSAGKVAISAKEIKEDNIGAQVLGLFTLSTGQDIWNQTNLEHHHHHH
B9: PRT-453 (protein)
chain: MVTSVWTKGVTPPANFTQGEDVFHAPYKANQGWYDITKTFNGKDDLLCGAATAGNMLHWWFDQNKDQIEAYLKEHPEKQKINFNGEQMFDVKEAIDTKDDQTNSKLFEYFKEKAFPYLSTKHLGVFPDHVLDMFINGYRLSLTNHGPTPVKEGSKDPRGGIFDAVFTRGDQSKLLTSRHDLKNKTLKEISDLIKQELTEGKALALSHTYANVRINHVINLWGADFDSNGNLEAIYVTDSDSNASIGMKKYFVGVNSAGKVAISAKEIEDDNIGAQVLGLFTLSTGQDIWNQTNLEHHHHHH
B10: PRT-465 (protein)
chain: MVTSVWTKGVTPPANFTQGEDVFHAPYVANQGWYDITKTFNGKDDLLCGAATAGNMLHWWFDQNKDQIERYLKEHPEKQKINFNGEQMFDVKEAIDTKDSQTDSKLFEYFKEKAFPYLSTKHLGVFPDHVLDMFINGYRLSLTNHGPTPVKEGSKDPRGGIFDAVFTRGDQSKLLTSRHDLKNKTLKEISDLIKQELTEGKALGLSHTYANVRINHVINLWGADFDSEGNLKAIYVTDSDSNASIGMKKYFVGVNSAGKVAISAKEIKEDNIGAQVLGLFTLSTGQDIWNQTNLEHHHHHH
B11: PRT-451 (protein)
chain: MVTSVWTKGVTPPANFRKIVDGNIAYYHAPYKANQGWYDITKTFNGKDDLLCGAATAGNMLHWWFDQNKDQIEAYLKEHPEKQKINFNGEQMFDVKEAIDTKDDQTNSKLFEYFKEKAFPYLSTKHLGVFPDHVLDMFINGYRLSLTNHGPTPVKEGSKDPRGGIFDAVFTRGDQSKLLTSRHDLKNKTLKEISDLIKQELTEGKALALSHTYANVRINHVINLWGADFDSNGNLEAIYVTDSDSNASIGMKKYFVGVNSAGKVAISAKEIEDDNIGAQVLGLFTLSTGQDIWNQTNLEHHHHHH
B12: PRT-449 (protein)
chain: MVTSVWTKGVTPPTDFRKIVDGNIAYYHAPYKAGQGWYDITKTFNGKDDLLCGAATAGNMLHWWFDQNKDQIEAYLKEHPEKQKINFNGEQMFDVKEAIDTKDDQTNSKLFEYFKEKAFPYLSTKHLGVFPDHVLDMFINGYRLSLTNHGPTPVKEGSKDPRGGIFDAVFTRGDQSKLLTSRHDFKEKTLKEISDLIKQELTEGKALALSHTYANVRINHVINLWGADFDSNGNLEAIYVTDSDSNASIGMKKYFVGVNSAGKVAISAKEIEDDNIGAQVLGLFTLSTGQDIWNQTNLEHHHHHH
B13: PRT-463 (protein)
chain: MVTSVWTKGVTPPANFRKIVDGNIAYYHAPYVANQGWYDITKTFNGKDDLLCGAATAGNMLHWWFDQNKDQIERYLKEHPEKQKINFNGEQMFDVKEAIDTKDSQTDSKLFEYFKEKAFPYLSTKHLGVFPDHVLDMFINGYRLSLTNHGPTPVKEGSKDPRGGIFDAVFTRGDQSKLLTSRHDLKNKTLKEISDLIKQELTEGKALGLSHTYANVRINHVINLWGADFDSEGNLKAIYVTDSDSNASIGMKKYFVGVNSAGKVAISAKEIKEDNIGAQVLGLFTLSTGQDIWNQTNLEHHHHHH

This data set deals with pooled human IgG (human IgG1, 2, 3 and 4).
As to B1, the Enzyme Activity Endpoint Assay (purified): Fab′2 was found to be 450 ng/µL, the Enzyme Activity Endpoint Assay (purified): Fc stood at 379 ng/µL, the Enzyme Activity Endpoint Assay (purified): IgG was 138 ng/µL and the Enzyme Activity Endpoint Assay (purified): scIgG was 337 ng/µL.
For the protein B2, the Enzyme Activity Endpoint Assay: Fab′2 is 0 ng/µL, the Enzyme Activity Endpoint Assay: Fc was 0 ng/µL, the Enzyme Activity Endpoint Assay: IgG worked out at 0 ng/µL and the Enzyme Activity Endpoint Assay: scIgG was 0 ng/µL.
Take B3: the Enzyme Activity Endpoint Assay: Fab′2 was 8 ng/µL, the Enzyme Activity Endpoint Assay: Fc amounted to 13 ng/µL, the Enzyme Activity Endpoint Assay: IgG came to 0 ng/µL and the Enzyme Activity Endpoint Assay: scIgG turned out to be 0 ng/µL.
In turn, B4 had an Enzyme Activity Endpoint Assay: Fab′2 of 25 ng/µL, an Enzyme Activity Endpoint Assay: Fc of 30 ng/µL, an Enzyme Activity Endpoint Assay: IgG of 0 ng/µL and an Enzyme Activity Endpoint Assay: scIgG of 0 ng/µL.
B5 gave an Enzyme Activity Endpoint Assay: Fab′2 of 1380 ng/µL, an Enzyme Activity Endpoint Assay: Fc of 429 ng/µL, an Enzyme Activity Endpoint Assay: IgG of 65 ng/µL and an Enzyme Activity Endpoint Assay: scIgG of 0 ng/µL.
The like results for B6 were, in that order, 0 ng/µL, 17 ng/µL, 0 ng/µL and 0 ng/µL.
The like results for B7 were, in that order, 462 ng/µL, 156 ng/µL, 0 ng/µL and 229 ng/µL.
The matching figures for B8: 17 ng/µL, 24 ng/µL, 0 ng/µL and 0 ng/µL.
Protein B9 gave an Enzyme Activity Endpoint Assay: Fab′2 of 1620 ng/µL, an Enzyme Activity Endpoint Assay: Fc of 607 ng/µL, an Enzyme Activity Endpoint Assay: IgG of 17 ng/µL and an Enzyme Activity Endpoint Assay: scIgG of 0 ng/µL.
The matching figures for B10: 504 ng/µL, 296 ng/µL, 111 ng/µL and 501 ng/µL.
The protein B11 registered an Enzyme Activity Endpoint Assay: Fab′2 of 1250 ng/µL, an Enzyme Activity Endpoint Assay: Fc of 324 ng/µL, an Enzyme Activity Endpoint Assay: IgG of 0 ng/µL and an Enzyme Activity Endpoint Assay: scIgG of 0 ng/µL.
For B12, the Enzyme Activity Endpoint Assay (purified): Fab′2 amounted to 1100 ng/µL, the Enzyme Activity Endpoint Assay (purified): Fc was found to be 365 ng/µL, the Enzyme Activity Endpoint Assay (purified): IgG came out at 0 ng/µL and the Enzyme Activity Endpoint Assay (purified): scIgG came to 0 ng/µL.
B13 showed an Enzyme Activity Endpoint Assay: Fab′2 of 821 ng/µL, an Enzyme Activity Endpoint Assay: Fc of 259 ng/µL, an Enzyme Activity Endpoint Assay: IgG of 0 ng/µL and an Enzyme Activity Endpoint Assay: scIgG of 0 ng/µL.
